Consider seven molecules from patent US20220074941A1, “HSP90 COMBINATION THERAPY” (Sloan-Kettering Institute for Cancer Research, priority 2011, published 2022).

The subject of test [1] is Hsp90 complexes in K562 cell extract. Nature of the test: Nano-LC-MS/MS of PU-beads pull-downs. The test is classed as binding. The following applies: protein identified in PU-beads pull-down of K562 cell extract, QSTAR-Elite QTof MS. In short, it runs like this:
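Lysates pre-cleared overnight at 4 °C with control beads, then pulled down with PU-beads or control beads; eluted proteins (2% SDS boil) gel-separated and analysed by nano LC-MS/MS on a QTof. Mascot identification (p<0.05), spectral counts and sequence coverage evaluated in Scaffold.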

Test [2] concerns Hsp90 complexes in Mia-PaCa-2 cell extract. The test can be described thus: Nano-LC-MS/MS of PU-beads pull-downs. The class given is binding, human. The following applies: protein identified in PU-beads pull-down of Mia-PaCa-2 cell extract; QSTAR-Elite QTof MS. An outline of the steps:
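Lysates pre-cleared overnight at 4 °C with control beads underwent PU-bead pull-down; bound proteins were SDS-eluted, gel-separated, digested and analyzed by nano-LC-MS/MS on a QTof. Identifications used significance p<0.05, 0.4 Da tolerances and one missed cleavage; unique peptide (spectral) counts and sequence coverage were reported.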

B1: DIABLO (protein, UniProt Q9NR28 22-239, looked up)
Diablo IAP-binding …: LCVPVVANFKKRCFSELIRPWHKTVTIGFGVTLCAVPIAQKSEPHSLSSEALMRRAVSLVTDSTSTFLSQTTYALIEAITEYTKAVYTLTSLYRQYTSLLGKMNSEEEDEVWQVIIGARAEMTSKHQEYLKLETTWMTAVGLSEMAAEAAYQTGADQASITARNHIQLVKLQVEEVHQLSRKAETKLAEAQIEELRQKTQEEGEERAESEQEAYLRED
For the molecule B1, in test [1], the “Number of Assigned Spectra, K562 Prep 1” value was 1 and the “Number of Assigned Spectra, K562 Prep 2” value turned out to be 0. Besides, the “Number of Assigned Spectra, Mia-Paca 2” value in test [2] amounted to 2.

B2: ZC3HAV1 (protein, UniProt Q7Z2W4 2-902, looked up)
Zinc finger CCCH-type …: ADPEVCCFITKILCAHGGRMALDALLQEIALSEPQLCEVLQVAGPDRFVVLETGGEAGITRSVVATTRARVCRRKYCQRPCDNLHLCKLNLLGRCNYSQSERNLCKYSHEVLSEENFKVLKNHELSGLNKEELAVLLLQSDPFFMPEICKSYKGEGRQQICNQQPPCSRLHICDHFTRGNCRFPNCLRSHNLMDRKVLAIMREHGLNPDVVQNIQDICNSKHMQKNPPGPRAPSSHRRNMAYRARSKSRDRFFQGSQEFLASASASAERSCTPSPDQISHRASLEDAPVDDLTRKFTYLGSQDRARPPSGSSKATDLGGTSQAGTSQRFLENGSQEDLLHGNPGSTYLASNSTSAPNWKSLTSWTNDQGARRKTVFSPTLPAARSSLGSLQTPEAVTTRKGTGLLSSDYRIINGKSGTQDIQPGPLFNNNADGVATDITSTRSLNYKSTSSGHREISSPRIQDAGPASRDVQATGRIADDADPRVALVNDSLSDVTSTTSSRVDDHDSEEICLDHLCKGCPLNGSCSKVHFHLPYRWQMLIGKTWTDFEHMETIEKGYCNPGIHLCSVGSYTINFRVMSCDSFPIRRLSTPSSVTKPANSVFTTKWIWYWKNESGTWIQYGEEKDKRKNSNVDSSYLESLYQSCPRGVVPFQAGSRNYELSFQGMIQTNIASKTQKDVIRRPTFVPQWYVQQMKRGPDHQPAKTSSVSLTATFRPQEDFCFLSSKKYKLSEIHHLHPEYVRVSEHFKASMKNFKIEKIKKIENSELLDKFTWKKSQMKEEGKLLFYATSRAYVESICSNNFDSFLHETHENKYGKGIYFAKDAIYSHKNCPYDAKNVVMFVAQVLVGKFTEGNITYTSPPPQFDSCVDTRSNPSVFVIFQKDQVYPQYVIEYTEDKACVIS
Regarding B2, in test [1], the “Number of Assigned Spectra, K562 Prep 1” value is on record as 7 and the “Number of Assigned Spectra, K562 Prep 2” value is listed as 0. Also, the “Number of Assigned Spectra, Mia-Paca 2” value in test [2] is on record as 0.

B3: FTSJD2 (protein, UniProt Q8N1G2 1-835, looked up)
Cap-specific mRNA …: MKRRTDPECTAPIKKQKKRVAELALSLSSTSDDEPPSSVSHGAKASTTSLSGSDSETEGKQHSSDSFDDAFKADSLVEGTSSRYSMYNSVSQKLMAKMGFREGEGLGKYSQGRKDIVEASSQKGRRGLGLTLRGFDQELNVDWRDEPEPSACEQVSWFPECTTEIPDTQEMSDWMVVGKRKMIIEDETEFCGEELLHSVLQCKSVFDVLDGEEMRRARTRANPYEMIRGVFFLNRAAMKMANMDFVFDRMFTNPRDSYGKPLVKDREAELLYFADVCAGPGGFSEYVLWRKKWHAKGFGMTLKGPNDFKLEDFYSASSELFEPYYGEGGIDGDGDITRPENISAFRNFVLDNTDRKGVHFLMADGGFSVEGQENLQEILSKQLLLCQFLMALSIVRTGGHFICKTFDLFTPFSVGLVYLLYCCFERVCLFKPITSRPANSERYVVCKGLKVGIDDVRDYLFAVNIKLNQLRNTDSDVNLVVPLEVIKGDHEFTDYMIRSNESHCSLQIKALAKIHAFVQDTTLSEPRQAEIRKECLRLWGIPDQARVAPSSSDPKSKFFELIQGTEIDIFSYKPTLLTSKTLEKIRPVFDYRCMVSGSEQKFLIGLGKSQIYTWDGRQSDRWIKLDLKTELPRDTLLSVEIVHELKGEGKAQRKISAIHILDVLVLNGTDVREQHFNQRIQLAEKFVKAVSKPSRPDMNPIRVKEVYRLEEMEKIFVRLEMKIIKGSSGTPKLSYTGRDDRHFVPMGLYIVRTVNEPWTMGFSKSFKKKFFYNKKTKDSTFDLPADSIAPFHICYYGRLFWEWGDGIRVHDSQKPQDQDKLSKEDVLSFIQMHRA
On to B3, for which, in test [1], the “Number of Assigned Spectra, K562 Prep 1” value came out at 3 and the “Number of Assigned Spectra, K562 Prep 2” value is listed as 1. Further, in test [2], the “Number of Assigned Spectra, Mia-Paca 2” value is 0.

B4: SLC3A2 (protein, UniProt P08195 1-630, looked up)
Amino acid transporter heavy …: MELQPPEASIAVVSIPRQLPGSHSEAGVQGLSAGDDSELGSHCVAQTGLELLASGDPLPSASQNAEMIETGSDCVTQAGLQLLASSDPPALASKNAEVTGTMSQDTEVDMKEVELNELEPEKQPMNAASGAAMSLAGAEKNGLVKIKVAEDEAEAAAAAKFTGLSKEELLKVAGSPGWVRTRWALLLLFWLGWLGMLAGAVVIIVRAPRCRELPAQKWWHTGALYRIGDLQAFQGHGAGNLAGLKGRLDYLSSLKVKGLVLGPIHKNQKDDVAQTDLLQIDPNFGSKEDFDSLLQSAKKKSIRVILDLTPNYRGENSWFSTQVDTVATKVKDALEFWLQAGVDGFQVRDIENLKDASSFLAEWQNITKGFSEDRLLIAGTNSSDLQQILSLLESNKDLLLTSSYLSDSGSTGEHTKSLVTQYLNATGNRWCSWSLSQARLLTSFLPAQLLRLYQLMLFTLPGTPVFSYGDEIGLDAAALPGQPMEAPVMLWDESSFPDIPGAVSANMTVKGQSEDPGSLLSLFRRLSDQRSKERSLLHGDFHAFSAGPGLFSYIRHWDQNERFLVVLNFGDVGLSAGLQASDLPASASLPAKADLLLSTQPGREEGSPLELERLKLEPHEGLLLRFPYAA
Take B4: in test [1], the “Number of Assigned Spectra, K562 Prep 1” value stood at 3 and the “Number of Assigned Spectra, K562 Prep 2” value stood at 0. In test [2], the “Number of Assigned Spectra, Mia-Paca 2” value stood at 0.

B5: PSPC1 (protein, UniProt Q8WXF1 1-523, looked up)
Paraspeckle component 1: MMLRGNLKQVRIEKNPARLRALESAVGESEPAAAAAMALALAGEPAPPAPAPPEDHPDEEMGFTIDIKSFLKPGEKTYTQRCRLFVGNLPTDITEEDFKRLFERYGEPSEVFINRDRGFGFIRLESRTLAEIAKAELDGTILKSRPLRIRFATHGAALTVKNLSPVVSNELLEQAFSQFGPVEKAVVVVDDRGRATGKGFVEFAAKPPARKALERCGDGAFLLTTTPRPVIVEPMEQFDDEDGLPEKLMQKTQQYHKEREQPPRFAQPGTFEFEYASRWKALDEMEKQQREQVDRNIREAKEKLEAEMEAARHEHQLMLMRQDLMRRQEELRRLEELRNQELQKRKQIQLRHEEEHRRREEEMIRHREQEELRRQQEGFKPNYMENREQEMRMGDMGPRGAINMGDAFSPAPAGNQGPPPMMGMNMNNRATIPGPPMGPGPAMGPEGAANMGTPMMPDNGAVHNDRFPQGPPSQMGSPMGSRTGSETPQAPMSGVGPVSGGPGGFGRGSQGGNFEGPNKRRRY
For the molecule B5, in test [1], the “Number of Assigned Spectra, K562 Prep 1” value came out at 5 and the “Number of Assigned Spectra, K562 Prep 2” value is reported as 2. The “Number of Assigned Spectra, Mia-Paca 2” value in test [2] was 0.

B6: NFKB1 (protein)
chain: MAEDDPYLGRPEQMFHLDPSLTHTIFNPEVFQPQMALPTDGPYLQILEQPKQRGFRFRYVCEGPSHGGLPGASSEKNKKSYPQVKICNYVGPAKVIVQLVTNGKNIHLHAHSLVGKHCEDGICTVTAGPKDMVVGFANLGILHVTKKKVFETLEARMTEACIRGYNPGLLVHPDLAYLQAEGGGDRQLGDREKELIRQAALQQTKEMDLSVVRLMFTAFLPDSTGSFTRRLEPVVSDAIYDSKAPNASNLKIVRMDRTAGCVTGGEEIYLLCDKVQKDDIQIRFYEEEENGGVWEGFGDFSPTDVHRQFAIVFKTPKYKDINITKPASVFVQLRRKSDLETSEPKPFLYYPEIKDKEEVQRKRQKLMPNFSDSFGGGSGAGAGGGGMFGSGGGGGGTGSTGPGYSFPHYGFPTYGGITFHPGTTKSNAGMKHGTMDTESKKDPEGCDKSDDKNTVNLFGKVIETTEQDQEPSEATVGNGEVTLTYATGTKEESAGVQDNLFLEKAMQLAKRHANALFDYAVTGDVKMLLAVQRHLTAVQDENGDSVLHLAIIHLHSQLVRDLLEVTSGLISDDIINMRNDLYQTPLHLAVITKQEDVVEDLLRAGADLSLLDRLGNSVLHLAAKEGHDKVLSILLKHKKAALLLDHPNGDGLNAIHLAMMSNSLPCLLLLVAAGADVNAQEQKSGRTALHLAVEHDNISLAGCLLLEGDAHVDSTTYDGTTPLHIAAGRGSTRLAALLKAAGADPLVENFEPLYDLDDSWENAGEDEGVVPGTTPLDMATSWQVFDILNGKPYEPEFTSDDLLAQGDMKQLAEDVKLQLYKLLEIPDPDKNWATLAQKLGLGILNNAFRLSPAPSKTLMDNYEVSGGTVRELVEALRQMGYTEAIEVIQAASSPVKTTSQAHSLPLSPASTRQQIDELRDSDSVCDSGVETSFRKLSFTESLTSGASLLTLNKMPHDYGQEGPLEGKI
Consider B6, for which, in test [1], the “Number of Assigned Spectra, K562 Prep 1” value is 1 and the “Number of Assigned Spectra, K562 Prep 2” value is recorded as 0. Also, the “Number of Assigned Spectra, Mia-Paca 2” value in test [2] was 2.

B7: STRN (protein, UniProt O43815 1-780, looked up)
Striatin: MDEQAGPGVFFSNNHPGAGGAKGLGPLAEAAAAGDGAAAAGAARAQYSLPGILHFLQHEWARFEVERAQWEVERAELQAQIAFLQGERKGQENLKKDLVRRIKMLEYALKQERAKYHKLKYGTELNQGDMKPPSYDSDEGNETEVQPQQNSQLMWKQGRQLLRQYLQEVGYTDTILDVKSKRVRALLGFSSDVTDREDDKNQDSVVNGTEAEVKETAMIAKSELTDSASVLDNFKFLESAAADFSDEDEDDDVDGREKSVIDTSTIVRKKALPDSGEDRDTKEALKEFDFLVTSEEGDNESRSAGDGTDWEKEDQCLMPEAWNVDQGVITKLKEQYKKERKGKKGVKRPNRSKLQDMLANLRDVDELPSLQPSVGSPSRPSSSRLPEHEINRADEVEALTFPPSSGKSFIMGADEALESELGLGELAGLTVANEADSLTYDIANNKDALRKTWNPKFTLRSHFDGIRALAFHPIEPVLITASEDHTLKMWNLQKTAPAKKSTSLDVEPIYTFRAHKGPVLCVVMSSNGEQCYSGGTDGLIQGWNTTNPNIDPYDSYDPSVLRGPLLGHTDAVWGLAYSAAHQRLLSCSADGTLRLWNTTEVAPALSVFNDTKELGIPASVDLVSSDPSHMVASFSKGYTSIFNMETQQRILTLESNVDTTANSSCQINRVISHPTLPISITAHEDRHIKFYDNNTGKLIHSMVAHLEAVTSLAVDPNGLYLMSGSHDCSIRLWNLESKTCIQEFTAHRKKFEESIHDVAFHPSKCYIASAGADALAKVFV
In the case of B7, in test [1], the “Number of Assigned Spectra, K562 Prep 1” value was determined as 5 and the “Number of Assigned Spectra, K562 Prep 2” value was 1. In addition, the “Number of Assigned Spectra, Mia-Paca 2” value in test [2] amounted to 0.
